For test [1], the system named is N18 cells. The experiment in a line: Neurite outgrowth assay in N18 cells. The following applies: immobilized proteins coated at 500 μg/ml, 17 hours (FIG. 3A). It is filed as cell-based. The method, then: FIG. 3A is a graph showing that neurite outgrowth in N18 cells is induced by immobilized laminin (Ln), immobilized TS and immobilized fragments of TS. Proteins were immobilized by incubating plates which contained wells filled with solutions of the proteins (protein concentration was 500 μg/ml) at 4° C. overnight. The protein solutions were removed and the plates were further incubated with 1% BSA at room temperature for one hour. N18 cells were cultured in the coated wells in serum-free RPMI-1640/0.2% BSA for 17 hours, and neurite outgrowth was measured by phase-contrast microscopy. […] Ln, laminin; TS, purified T. cruzi trans-sialidase; 7F, recombinant TS from clone 7F; 19Y, recombinant TS from clone 19Y; TS-F, recombinant fragment consisting of amino acid residues 33-666 of TS (SEQ ID NO:2); TS-CC-47, recombinant fragment consisting of amino acid residues 79-478 of TS (SEQ ID NO:2); TS-Cat-47, recombinant fragment consisting of amino acid residues 79-415 of TS (SEQ ID NO:2); BSA, bovine serum albumin.
96-well microtiter plates were coated overnight at 4° C. with the TS or peptides or fragments thereof, or with control proteins laminin (Ln) or bovine serum albumin (BSA) at 500 μg/ml. After removing the compounds, the plates were further incubated with 1% BSA for 1 hour at room temperature and immediately used as substratum for PC12 or N18 (Prasad, K. N., Biol Rev Camb Philos Soc, 66:431-451 (1991)) cells in serum-free RPMI/0.2% BSA. Neurite outgrowth was measured using a phase-contrast microscope 17 hours later.

Test [2] deals with PC12 cells. The experiment in a line: Trophic factor withdrawal-induced apoptosis of PC12 cells (DAPI/TUNEL). The class given is cell-based, rat. An excerpt:
PC12 cells were obtained from ATCC (Manassas, Va. (Accession No. CRL-1721)) and cultured on collagen-coated dishes in RPMI 1640 supplemented with 10% horse serum and 5% fetal bovine serum (Greene, L. A. and Tishler, A. S., Proc. Natl. Acad. Sci. USA, 73: 2424-2428 (1976)). For differentiation and survival experiments, cells were washed three times in serum-free RPMI/0.2% BSA, plated in the same medium in collagen-coated plastic dishes at 2×10^5/ml, without and with growth factors, TS, recombinant proteins, synthetic peptides, for the time and concentrations indicated in the Figures.
Cell staining with 4,6-diamino-2-phenylindole (DAPI). Cells were fixed with 4% formaldehyde in PBS for 5 minutes, washed with PBS, stained with 10 μg/ml DAPI (Sigma) for 2 minutes, washed with PBS, and visualized under UV light using a fluorescent microscope. About 300-400 cells were examined under the microscope to determine the percentage of apoptotic cells.
Cell DNA nick end labeling (TUNEL) (Gavrieli, Y., et al., J. Cell. Biol. 119: 493-501 (1992)) assay was performed using a kit purchased from Boehringer Mannheim as described by the manufacturer.
Protection against apoptosis of PC12 cells in serum-free medium containing a test agent (agent N)(e.g., protection induced by TS, TS fragments, NGF or other growth factors), was calculated by the formula: 100%-[(apoptosis(%) of cells kept in RPMI containing test agent N÷apoptosis (%) of cells kept in RPMI)×100%]. Testing the effect of wortmannin (Sigma) and LY294002 (Sigma) in inhibiting the neuroprotection of TS was performed following the protocol described by others (Yao and Cooper, Science, 267:2003-2006 (1995); D'Mello et al., J. Neurosci 17:1548-1560 (1997)). In brief, PC12 cells were switched from growth medium to RPMI without and with TS or various other growth factors. After 24 hr, wortmannin and LY294002 were added to the cultures. After another 24 hrs, cells were examined for apoptosis by the DAPI assay, as above.

The test system of test [3] is human Schwann cells. The experiment in a line: Serum withdrawal-induced apoptosis of immortalized human Schwann cells (DAPI). It is filed as cell-based.
Test [4] has as its system Akt kinase in PC12 cells. Nature of the test: Immunodetection of activated Akt (Ser 473) in PC12 cells. It is filed as cell-based, rat. The method, then: PC12 cells were deprived of serum for 24-48 hours, stimulated with TS, TS-F or LTR for 2, 5 or 10 minutes and immediately lysed with 2% SDS. In studies using the PI-3 kinase inhibitor, LY294002 (LY), cells were pre-treated with the inhibitor (1 μM) for 30 min prior to the addition of TS-F or TS. The proteins in the cell lysate were separated in SDS-10% polyacrylamide gels, transferred to nitrocellulose membrane (Bio-Rad) and the phosphorylated form of protein kinase Akt was detected with phospho-Akt (Ser 473) antibody (New England BioLabs, Beverly, Mass.), followed by alkaline phosphatase-conjugated secondary antibody (Promega, Madison, Wis.). Bands corresponding to phospho-Akt (60 kDa) were quantified using a scanning densitometer (Bio-Rad).

Test [5] relates to human bladder carcinoma T-24 cell line. The experiment in a line: IL-6 secretion by T-24 carcinoma cells (ELISA). It is filed as cell-based. The method, then: Primary cultures of human intestinal microvascular endothelial cells (HIMEC) isolated from normal jejunal mucosa/submucosal tissue were prepared as described (Strong et al., Gastroenterology 114: 1244-1256 (1998)). The HIMEC were cultured in fibronectin-coated plasticware in MCDB medium (Sigma) supplemented with 20% FBS, 90 μg/ml heparin and 50 μg/ml endothelial cell growth factor (Sigma). T-24 cells (ATCC Accession No. HTB-4) were cultured in M199 medium supplemented with 10% FBS. PBMC were purified by Ficoll-Paque gradient as described (Current Protocols in Immunology, pp 7.1.1-7.1.2). Vero cells (ATCC Accession No. CCL-81) were grown in RPMI medium with 5% Nu serum and infected with the Silvio X-10/4 of T. cruzi as described previously (Chuenkova et al., J. Exp. Med. 181: 1693-1703, (1995)).
Endothelial cells and T-24 cells were plated on 24-well plates at a density of 1×10^3 cells/well, while peripheral blood mononuclear cells (PBMC) were plated in the similar wells at 1×10^6/well. Triplicat cultures of cells were incubated test agents for a predetermined amount of time. […] Cytokines and chemokines released in the culture supernatants were measured by ELISA assay following the instructions of the manufacturer (Endogen). The cytokines tested were IL-1β, IL-4, IL-8, IL-10, IL-12, IFN-γ, TNF-α, and the chemokines RANTES and MCP-1. Negative controls were cells incubated in medium containing polymixin B at 10 μg/ml, and positive controls were cells incubated with bacterial LPS at the low ng/ml range (for PBMC or HIMEC) or in the μg/ml range for carcinoma T-24 cells. In some experiments, IL-1β, or TNFα were used as positive control for cytokine release.

Entries after “also recorded” stand apart in the source; their conditions may differ.

B1: TS: T. cruzi trans-sialidase purified by immuno-affinity chromatography from supernatants of infected Vero cells (SEQ ID NO:2, SEQ ID NO:34) (protein, listed as Trypanosoma cruzi)
chain: MVAIADARYETSSENSLIDTVAKYSVDDGETWETQIAIKNSRVSSVSRVVDPTVIVKGNKLYVLVGSYYSSRSYWSSHGDARDWDILLAVGEVTKSTAGGKITASIKWGSPVSLKKFFPAEMEGMHTNQFLGGAGVAIVASNGNLVYPVQVTNKRKQVFSKIFYSEDDGKTWKFGKGRSDFGCSEPVALEWEGKLIINTRVDWKRRLVYESSDMEKPWVEAVGTVSRVWGPSPKSNQPGSQTSFTAVTIEGMRVMLFTHPLNFKGRCVRDRLNLWLTDNQRIYNVGQVSIGDENSAYSSVLYKDDKLYCLHEINTDEVYSLVFARLVGELRIIKSVLRSWKNWTATCPAFAPLLIQPLRRQRVVVVPLSPRLVLLAFCRQRLPKRMGGSYRCVNASTANAERVRNGLKFAGVGGGALWPVSQQGQNQRYRFANHAFTLVASVTIHEAPRAASPLLGASLDSSGGKKLLGLSYDEKHQWQPIYGSTPVTPTGSWETGKRYHLVLTMANKIGSVYIDGELLEGSGQTVVPDGRTPDISHFYVGGYKRSDMPTISHVTVNNVLLYNRRQLNTEEIRTLFLSQDLIGTEAHMDSSSDSSAHSTPSTPADSSAHSTPSTPVDSSAHSTPSTPADSSAHGTPSTPVDSSAHGTPSTPADSSAHGTPSTPVDSSAHSTPSTPVDSSAHSTPSTPVDSSAHGAPSTPADSSAHGTPSTPVDSSAHGTPSTPADSSAHSTPSTPADSSAHSTPSTPADSSAHSTPSTPVDSSAHGTPSTPADSSAHSTPSTPADSSAHGTPSTPVDSSAHSTPSTPVDSSAHGTPSTPVDSSAHSTPSTPVDSSAHGTPSTPVDSSAHSTPSTPADSSAHSTPSTPADSSAHGTPSTPVDSSAHSTPSTPADSSAHSTPSTPVDSSAHSTPSTPADSSAHGTPSTPVDSSAHGTPSTPADSSAHSTPSTPADSSAHSTPSTPADSSAHSTPSTPVDSSAHSTPSTPADSSAHSTPSTPADSSAHSTPSTPADSSAHSTPSTPVDSSAHSTPSTPADSSAHGTPSTPADSSAHSTPSTPVDSSAHSTPSTPADSSAHGTPSTPADSSAHSTPSTPADSSAHGTPSTPADSSAHSTPSTPAGSSANGTVLILPDGAALSTFSGGGLLLCACALLLHVFFMAVF
As for B1, in test [1], the “neurite outgrowth in N18 cells” value was “induced neurite outgrowth”. Besides, the “PC12 cells protected from death” value in test [2] (TS 62 pM (equivalent to 12.5 ng/ml)) is recorded as 45%. Also, the “survival of PC12 cells grown in serum-free medium” value in test [2] (TS 2.5 ng/ml alone or with CNTF 50 ng/ml or LIF 0.5 ng/ml) stood at 13%. For the same molecule, the “PC12 cells protected from apoptotic death” value in test [2] (TS 2.5 ng/ml, NGF 0.5 ng/ml, alone or co-administered at the same concentrations) is 15%. For the same molecule, the “potency relative to NGF in preventing apoptosis” value in test [2] (molar basis) is on record as “more potent on a molar basis; also recorded: at concentrations lower than those required by nerve growth factor; also recorded: more effective on a molar base”. Further, in test [2] (serum-free RPMI-1640/0.2% BSA, 17 hours, DAPI or TUNEL), the “protection of PC12 cells from apoptosis induced by trophic factor withdrawal” value is recorded as “effectively protected; also recorded: inhibits trophic factor withdrawal-induced apoptosis; also recorded: protects PC12 cells from apoptosis induced by trophic factor withdrawal in a dose dependent manner; also recorded: protected PC12 cells from apoptosis”. Further, in test [2] (time course, TS 0.5 nM (FIG. 5B)), the “duration of protection of PC12 cells by a single dose” value is given as “up to several days; also recorded: delayed trophic factor withdrawal-induced apoptotic death”. Further, the “dose showing efficacy as trophic factor for Schwann cells” value in test [3] was not below 0.5 nM. Also, the “inhibition of serum withdrawal-induced apoptosis of human Schwann cells” value in test [3] (serum-free DMEM, 24-72 hours, DAPI) is “effectively inhibited; also recorded: dose-dependent inhibition”. Besides, the “phosphorylation/activation of Akt kinase in PC12 cells” value in test [4] (100 ng/ml, 2, 5 or 10 minutes, phospho-Akt (Ser 473) antibody) was “becomes activated; also recorded: induces serine phosphorylation of Akt kinase”. In addition, the “exposure time after which Akt becomes activated” value in test [4] (TS 100 ng/ml) lay within 2 to 5 min. In addition, in test [5] (24 hours culture), the “IL-6 secretion by T-24 cells” value was “stimulated IL-6 secretion”. Besides, in test [5] (TS 1 μg/ml, 24 hr), the “bacterial LPS concentration inducing the same IL-6 in T-24 cells” value amounted to 0.75 µg/mL.

Values taken from patent US8114412B2, “T. cruzi-derived neurotrophic agents and methods of use therefor” (priority 1999, dated 2012).
